Assay results reported in US20240043534A1 (UNIVERSITY OF CHICAGO, published 2024).

T1: C-terminal domain of the Zaire strain of Ebola virus nucleoprotein (EBOV NP^CT) (Ebola virus, Zaire strain (EBOV), UniProt P18272 641-739)
T1 construct: also called EBOV NT^CT; NP^CT EBOV Zaire
T1 sequence: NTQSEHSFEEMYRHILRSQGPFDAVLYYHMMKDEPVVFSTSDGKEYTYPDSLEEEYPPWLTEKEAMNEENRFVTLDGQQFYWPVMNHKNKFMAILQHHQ

B1: Protein GA1 (designed binder)
chain: TPAVTTYKLVINGRTLSGYTTTTAVDAATAEKVFKQYAYVHEVDGEWTYDDATKTFTVTEKPEKL
notes: also called pGA1; PGA1

Columns and labels:
[1] = biological target: T2, Fab^S (Herceptin Fab scaffold variant with Lc E123S; Lc aa 123-127 SQLKS); assay: SPR (preliminary results), Protein G variant against Fab scaffold
[2] = biological target: T2, Fab^S (Herceptin Fab scaffold variant …); assay: SPR
[3] = biological target: T3, “Λ” Fab scaffold (4D5 scaffold with SEELQANK in the Lc region); assay: SPR (preliminary results), Protein G variant against Fab scaffold
T3 construct: also called “Lambda” Fab scaffold

[4] = biological target: T4, Fab^H (Herceptin Fab scaffold with wt human kappa Lc; Lc aa 123-127 EQLKS); assay: as above
T4 construct: also called Hkappa

Protein GA1 = biological target: B1; assay: SPR, Fab Lc variant as analyte on His-tag-immobilized GA1
[5] = biological target: T1, C-terminal domain of the Zaire strain …; assay: SPR, Fab as analyte on His-tag-immobilized antigen

T3 sequence (light, as listed by the source): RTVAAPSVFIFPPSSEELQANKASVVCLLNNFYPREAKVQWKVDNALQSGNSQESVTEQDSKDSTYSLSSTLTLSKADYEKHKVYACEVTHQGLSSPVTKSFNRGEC

Row | Binder | Kd [1] [nM] | Kd [5] [nM] | other results
1 | B1 | 100 |  | Kd [2]: ~50 nM
2 | Protein G D (designed binder, also called pGD; D 38IDMVSS43) TPAVTTYKLVINGRTLSGYTTTTAVDAATAEKVFKQIDMVSSVDGEWTYDDATKTFTVTEKPEKL | 80 |  | 
3 | Protein G F (designed binder, also called pGF; F 38YAFGNG43) TPAVTTYKLVINGRTLSGYTTTTAVDAATAEKVFKQYAFGNGVDGEWTYDDATKTFTVTEKPEKL | 60 |  | Kd [3]: 50 nM; Kd [4]: 3 nM
4 | Fab Lc scaffold variant ΔΔLKT (mutated; printed in Table 1 as AALKS) (Fab, V domains shown) VH: EVQLVESGGGLVQPGGSLRLSCAASGFNISYSSIHWVRQAPGKGLEWVASIYSYSGYTSYADSVKGRFTISADTSKNTAYLQMNSLRAEDTAVYYCARSYWYHVGSWHYTGMDYWGQGTLVTVSS VL: DIQMTQSPSSLSASVGDRVTITCRASQSVSSAVAWYQQKPGKAPKLLIYSASSLYSGVPSRFSGSRSGTDFTLTISSLQPEDFATYYCQQSSSSLITFGQGTKVEIKR |  |  | Kd (Protein GA1): 12 nM
5 | MJ6 EBOV LRT-Fab (Fab, V domains shown, also called Fab MJ6) VH: EVQLVESGGGLVQPGGSLRLSCAASGFNVYYYYIHWVRQAPGKGLEWVASISPYYGYTSYADSVKGRFTISADTSKNTAYLQMNSLRAEDTAVYYCARWSYDQSMSYKSGMDYWGQGTLVTVSS VL: DIQMTQSPSSLSASVGDRVTITCRASQSVSSAVAWYQQKPGKAPKLLIYSASSLYSGVPSRFSGSRSGTDFTLTISSLQPEDFATYYCQQYSYSLVTFGQGTKVEIKR |  | 0.7 | koff [5]: 0.001 s⁻¹
6 | MJ20 RESTV LRT-Fab (Fab, V domains shown, also called Fab MJ20) VH: EVQLVESGGGLVQPGGSLRLSCAASGFNISYSSIHWVRQAPGKGLEWVASIYSYSGYTSYADSVKGRFTISADTSKNTAYLQMNSLRAEDTAVYYCARSYWYHVGSWHYTGMDYWGQGTLVTVSS VL: DIQMTQSPSSLSASVGDRVTITCRASQSVSSAVAWYQQKPGKAPKLLIYSASSLYSGVPSRFSGSRSGTDFTLTISSLQPEDFATYYCQQSSSSLITFGQGTKVEIKR |  | 3.4 | 
